Four molecules from article PMC10381965 can be followed below.

The assay deals with CENP-ΔQU complex (CENP-Q^1–294 and CENP-U^30–266) (S. cerevisiae) (UniProt P53298). As to the kind of experiment: ITC; CENP-A^END peptides (0.87 to 2.18 mM) titrated into CENP-QU (66 to 180 μM) in the cell; 20°C; 20 mM Hepes pH 7.5, 100 mM NaCl, 1 mM TCEP; single-site binding model; triplicate.

B1: CENP-A^END-1 peptide (peptide)
peptide: Ac-DASINDRALSLLQRTRATDAW-NH2
Broadly, the Kd is a measure of binding affinity in units of concentration. A high value points to lower affinity. Molecule B1 yielded a Kd of 11500 nM. That is a double-digit micromolar value.

B2: CENP-A^END-2 peptide (peptide)
peptide: Ac-AGDQQSINDRALSLLQRTRATKNW-NH2
The molecule B2 yielded a dissociation constant (Kd) of 1000 nM.

B3: CENP-A^END-3 peptide (peptide)
peptide: Ac-AGDQQSINDRALSLLQRTRATKNLFPRREERRRW-NH2
B3 gave a Kd of 720 nM.

B4: CENP-A^END-2-R37A peptide (peptide)
peptide: Ac-AGDQQSINDAALSLLQRTRATKNW-NH2
As to B4, the fold reduction of affinity against the unchanged CENP-A^END peptide stood at 15 fold.
